# Data as given in patent US20180155451A1 (published 2018).
# T1: FcγRIIa R (human, UniProt P12318 34-217)
# T1 construct: extracellular domain; also called FcgRIIa R type; 2aR
# T1 sequence (looked up): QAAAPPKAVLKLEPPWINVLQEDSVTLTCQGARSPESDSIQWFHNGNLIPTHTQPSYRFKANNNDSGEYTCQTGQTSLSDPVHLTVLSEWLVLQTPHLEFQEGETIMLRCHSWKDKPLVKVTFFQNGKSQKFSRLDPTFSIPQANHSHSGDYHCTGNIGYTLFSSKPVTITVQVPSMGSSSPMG
# B1: GpH7-A5/GpH7-B3 variant P238_08L/GpL16-k0 (antibody, human IgG1, kappa)
# heavy 1: not shown
# heavy 2: not shown
# light: DIVMTQSPLSLPVTPGEPASISCQASESLVHSNRNTYLHWYLQKPGQSPQLLIYKVSNRFSGVPDRFSGSGSGTDFTLKISRVEAEDVGVYYCSQNTHVPPTFGQGTKVEIERTVAAPSVFIFPPSDEQLKSGTASVVCLLNNFYPREAKVQWKVDNALQSGNSQESVTEQDSKDSTYSLSSTLTLSKADYEKHKVYACEVTHQGLSSPVTKSFNRGEC
# notes: heterodimerized; also called He Ab P238_08L
# B2: GpH7-A5/GpH7-B3 variant N325_06M/GpL16-k0 (antibody, human IgG1, kappa)
# heavy 1: not shown
# heavy 2: not shown
# light: B1 light
# notes: also called He Ab N325_06M
# B3: GpH7-A5/GpH7-B3 variant G237_13S/GpL16-k0 (antibody, human IgG1, kappa)
# heavy 1: not shown
# heavy 2: not shown
# light: B1 light
# notes: also called He Ab G237_13S
# B4: GpH7-A5/GpH7-B3 variant P271_02A/GpL16-k0 (antibody, human IgG1, kappa)
# heavy 1: not shown
# heavy 2: not shown
# light: B1 light
# notes: heterodimerized; also called He Ab P271_02A
# B5: GpH7-A5/GpH7-B3 variant A327_10E/GpL16-k0 (antibody, human IgG1, kappa)
# heavy 1: not shown
# heavy 2: not shown
# light: B1 light
# notes: also called He Ab A327_10E
# B6: GpH7-A5/GpH7-B3 variant K326_04F/GpL16-k0 (antibody, human IgG1, kappa)
# heavy 1: not shown
# heavy 2: not shown
# light: B1 light
# notes: also called He Ab K326_04F
# B7: GpH7-A5/GpH7-B3 variant G237_19Q/GpL16-k0 (antibody, human IgG1, kappa)
# heavy 1: not shown
# heavy 2: not shown
# light: B1 light
# notes: also called He Ab G237_19Q
# B8: GpH7-A5/GpH7-B3 variant E269_09D/GpL16-k0 (antibody, human IgG1, kappa)
# heavy 1: not shown
# heavy 2: not shown
# light: B1 light
# notes: also called He Ab E269_09D
# B9: GpH7-A5/GpH7-B3 variant A330_01G/GpL16-k0 (antibody, human IgG1, kappa)
# heavy 1: not shown
# heavy 2: not shown
# light: B1 light
# notes: also called He Ab A330_01G
# B10: GpH7-A5/GpH7-B3 variant K326_12R/GpL16-k0 (antibody, human IgG1, kappa)
# heavy 1: not shown
# heavy 2: not shown
# light: B1 light
# notes: also called He Ab K326_12R
# B11: GpH7-A5/GpH7-B3 variant I332_14T/GpL16-k0 (antibody, human IgG1, kappa)
# heavy 1: not shown
# heavy 2: not shown
# light: B1 light
# notes: also called He Ab I332_14T
# B12: GpH7-A5/GpH7-B3 variant E333_05P/GpL16-k0 (antibody, human IgG1, kappa)
# heavy 1: not shown
# heavy 2: not shown
# light: B1 light
# notes: also called He Ab E333_05P
# B13: GpH7-A5/GpH7-B3 variant I336_18N/GpL16-k0 (antibody, human IgG1, kappa)
# heavy 1: not shown
# heavy 2: not shown
# light: B1 light
# notes: also called He Ab I336_18N
# B14: GpH7-A5/GpH7-B3 variant G237_04F/GpL16-k0 (antibody, human IgG1, kappa)
# heavy 1: not shown
# heavy 2: not shown
# light: B1 light
# notes: also called He Ab G237_04F
# B15: GpH7-A5/GpH7-B3 variant P271_11K/GpL16-k0 (antibody, human IgG1, kappa)
# heavy 1: not shown
# heavy 2: not shown
# light: B1 light
# notes: heterodimerized; also called He Ab P271_11K
# B16: GpH7-A5/GpH7-B3 variant A330_05P/GpL16-k0 (antibody, human IgG1, kappa)
# heavy 1: not shown
# heavy 2: not shown
# light: B1 light
# notes: also called He Ab A330_05P
# B17: GpH7-A5/GpH7-B3 variant G237_02A/GpL16-k0 (antibody, human IgG1, kappa)
# heavy 1: not shown
# heavy 2: not shown
# light: B1 light
# notes: also called He Ab G237_02A
# B18: GpH7-A5/GpH7-B3 variant H268_11K/GpL16-k0 (antibody, human IgG1, kappa)
# heavy 1: not shown
# heavy 2: not shown
# light: B1 light
# notes: also called He Ab H268_11K
# B19: GpH7-A5/GpH7-B3 variant P238_10E/GpL16-k0 (antibody, human IgG1, kappa)
# heavy 1: not shown
# heavy 2: not shown
# light: B1 light
# notes: heterodimerized; also called He Ab P238_10E
# B20: GpH7-A5/GpH7-B3 variant G237_20W/GpL16-k0 (antibody, human IgG1, kappa)
# heavy 1: not shown
# heavy 2: not shown
# light: B1 light
# notes: also called He Ab G237_20W
# B21: GpH7-A5/GpH7-B3 variant A327_09D/GpL16-k0 (antibody, human IgG1, kappa)
# heavy 1: not shown
# heavy 2: not shown
# light: B1 light
# notes: also called He Ab A327_09D
# B22: GpH7-A5/GpH7-B3 variant P271_06M/GpL16-k0 (antibody, human IgG1, kappa)
# heavy 1: not shown
# heavy 2: not shown
# light: B1 light
# notes: heterodimerized; also called He Ab P271_06M
# B23: GpH7-A5/GpH7-B3 variant H268_12R/GpL16-k0 (antibody, human IgG1, kappa)
# heavy 1: not shown
# heavy 2: not shown
# light: B1 light
# notes: also called He Ab H268_12R
# B24: GpH7-A5/GpH7-B3 variant A330_15Y/GpL16-k0 (antibody, human IgG1, kappa)
# heavy 1: not shown
# heavy 2: not shown
# light: B1 light
# notes: also called He Ab A330_15Y
# B25: GpH7-A5/GpH7-B3 variant G237_09D/GpL16-k0 (antibody, human IgG1, kappa)
# heavy 1: not shown
# heavy 2: not shown
# light: B1 light
# notes: also called He Ab G237_09D
# B26: GpH7-A5/GpH7-B3 variant H268_20W/GpL16-k0 (antibody, human IgG1, kappa)
# heavy 1: not shown
# heavy 2: not shown
# light: B1 light
# notes: also called He Ab H268_20W
# B27: GpH7-A5/GpH7-B3 variant H268_05P/GpL16-k0 (antibody, human IgG1, kappa)
# heavy 1: not shown
# heavy 2: not shown
# light: B1 light
# notes: also called He Ab H268_05P
# B28: GpH7-A5/GpH7-B3 variant K326_07I/GpL16-k0 (antibody, human IgG1, kappa)
# heavy 1: not shown
# heavy 2: not shown
# light: B1 light
# notes: also called He Ab K326_07I
# B29: GpH7-A5/GpH7-B3 variant K326_03V/GpL16-k0 (antibody, human IgG1, kappa)
# heavy 1: not shown
# heavy 2: not shown
# light: B1 light
# notes: also called He Ab K326_03V
# Assays:
# [1] = target: T2, FcγRIa (human, UniProt P12314 16-292); test: SPR; vs GpH7-A5/GpH7-B3/GpL16-k0=100
# T2 construct: extracellular domain; also called FcgRI; CD64
# [2] = target: T1, FcγRIIa R; test: SPR Biacore; vs GpH7-A5/GpH7-B3/GpL16-k0 =100
# T2 sequence (P12314 16-292): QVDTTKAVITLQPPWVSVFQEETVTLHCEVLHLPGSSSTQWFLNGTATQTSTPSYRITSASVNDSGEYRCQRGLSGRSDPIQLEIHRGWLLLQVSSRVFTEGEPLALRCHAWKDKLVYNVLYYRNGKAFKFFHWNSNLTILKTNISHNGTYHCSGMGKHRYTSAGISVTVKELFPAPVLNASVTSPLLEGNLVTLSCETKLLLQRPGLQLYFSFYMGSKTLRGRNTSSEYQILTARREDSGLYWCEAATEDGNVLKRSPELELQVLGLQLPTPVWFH
Binder,He/Con_1a [1],He/Con_2aR [2]
B1,101 % of control,–
B2,–,152 % of control
B3,–,121 % of control
B4,104 % of control,–
B5,–,110 % of control
B6,–,135 % of control
B7,–,121 % of control
B8,–,105 % of control
B9,–,109 % of control
B10,–,103 % of control
B11,–,105 % of control
B12,–,105 % of control
B13,–,104 % of control
B14,–,126 % of control
B15,103 % of control,–
B16,–,115 % of control
B17,–,126 % of control
B18,–,100 % of control
B19,102 % of control,–
B20,–,138 % of control
B21,–,124 % of control
B22,102 % of control,–
B23,–,105 % of control
B24,–,102 % of control
B25,–,156 % of control
B26,–,113 % of control
B27,–,106 % of control
B28,–,147 % of control
B29,–,141 % of control
